Data on one molecule can be found in US20140220033A1, “Administration of an Anti-Activin-A Compound to a Subject” (Santa Maria Biotherapeutics, Inc., priority 2013, published 2014).

For assay [1], the system named is VEGF transcripts. Description: VEGF mRNA in cell cultures (real-time RT-PCR). The format is cell-based, human, bovine. To be noted: TOV-21G, BAEC, MRC-5, CCD-Lu, U937 cultures treated with recombinant activin-A, without or with sActRIIB; FIG. 16A.
Assay [2] concerns VEGF. Description: Serum VEGF in inh-KO mice (ELISA). In kind it is in vivo, mouse. Conditions: inh-KO mice with advanced ovarian and testicular tumors; single dose; FIG. 8A. On the procedure:
(§1) 12-week-old female and 8-week-old male inh-KO mice with fully established ovarian or testicular tumors received a single injection of PBS or sActRIIB (30 mg/kg, SC). As a control, age-matched wild-type littermates received a single injection of PBS. Ovarian and testicular organ weights were determined by necropsy 14 days after the injection.
(§2) The serum VEGF levels in inh-KO mice were measured by using immunoassay kit (R&D Systems), and the levels of human VEGF and Ang-1 in cell line culture medium were quantified using ELISA kits purchased from Invitrogen (VEGF) and R&D Systems (Ang-1), by following the manufacturers' recommended protocols.

Assay [3] deals with Ang-1. Nature of the assay: Ang-1 immunostaining in TOV-21G xenograft tumor sections. In kind it is in vivo, mouse. Conditions: treated vs untreated sections (strong immunostaining); FIG. 15A. On the procedure: (§3) 5×10^6 TOV-21G ovarian cancer cells were implanted subcutaneously into individual female athymic nu/nu mice (Harlan). Treatment was initiated at day 12 after tumor implantation, when the average tumor volume reached approximately 150 mm^3. The mice received PBS, sActRIIB (30 mg/kg, SC, 1×/week) or activin-A antibody (30 mg/kg, SC, 2×/week). In a separate chemotherapy combination experiment, the mice were treated with PBS, sActRIIB (10 mg/kg, SC, 1×/week), 5-FU (50 mg/kg, IP, 3 cycles, 4 daily injections per cycle) or sActRIIB and 5-FU combination at the same doses above.
Zinc-formalin fixed paraffin tumor tissue sections of 4 μm in thickness were prepared. The sections were subjected to antigen retrieval by microwave 3 min in Unmask solution (Vector H-3300) followed by incubation in 10 μg/ml Proteinase-K for 20 min and in 1% H2O2 in dH2O for 10 min at room temperature. The sections were further incubated in 0.1% Tween-20 in PBS for 3 min to permeabilize the cell membrane and in goat serum for 30 min to block non-specific binding. The sections were then incubated at room temperature with specific primary antibody for 3 hours followed by incubation in biotinylated or fluorescently labeled secondary antibody. […] The immunostained tissue sections were analyzed and photographed using a Nikon Eclipse 90i microscope equipped with DS-Ril camera. […]

Assay [4] has as its system VEGF. Nature of the assay: VEGF immunostaining in gonadal tumor sections of inh-KO mice. To be noted: ovarian and testicular tumors of inh-KO mice; FIG. 8B. The format is in vivo, mouse. As to the method: as §1
(§4) Zinc-formalin fixed paraffin tumor tissue sections of 4 μm in thickness were prepared. The sections were subjected to antigen retrieval by microwave 3 min in Unmask solution (Vector H-3300) followed by incubation in 10 μg/ml Proteinase-K for 20 min and in 1% H2O2 in dH2O for 10 min at room temperature. The sections were further incubated in 0.1% Tween-20 in PBS for 3 min to permeabilize the cell membrane and in goat serum for 30 min to block non-specific binding. The sections were then incubated at room temperature with specific primary antibody for 3 hours followed by incubation in biotinylated or fluorescently labeled secondary antibody. Substrate developed in Vector SG kit (SK-4700) or DAB and nuclear-counterstained in Vector Fast Red (H-3403) or in hematoxylin. The immunostained tissue sections were analyzed and photographed using a Nikon Eclipse 90i microscope equipped with DS-Ril camera. […]

Assay [5] concerns ovarian tumors in inh-KO mice. Description: Ovarian tumor mass in inh-KO mice (necropsy). The format is in vivo, mouse. To be noted: 12-week-old female inh-KO mice; single dose 30 mg/kg SC; necropsy 14 days after injection; FIG. 3A, 3B. On the procedure: as §1
The subject of assay [6] is IGFBP-1. Nature of the assay: Western blot of IGFBP-1 in ovarian tumors of inh-KO mice. In kind it is in vivo, mouse. To be noted: FIG. 8D. As to the method:
as §1
(§5) Protein extracts were prepared from cell cultures or tissues in T-PER tissue protein extraction reagent (Pierce) containing a mixture of protease inhibitors (Roche). A pool of 50 μg total protein for each group containing equal amounts of protein extract isolated from individual animals was separated by NuPAGE 4-12% Bis-Tris gel (Invitrogen) and transferred to PVDF. The membranes were probed with primary antibodies against total Smad2, p-Smad2 or E-cadherin (1:1000; Cell Signaling), endoglin, osteopontin (1:500; R&D Systems), IGFBP-1, IGFBP-2 (1:500; Abcam) followed by HRP-conjugated secondary antibody (1:2000; Cell Signaling). The membranes were stripped and re-probed with antibody against α-tubulin (1:1000; Cell Signaling).

Assay [7] deals with TOV-21G ovarian cancer xenografts. Description: TOV-21G ovarian cancer xenograft growth in nude mice. The format is in vivo, mouse. On the procedure:
as §3
For all xenograft experiments, the tumor sizes were measured longitudinally by using an electronic caliper Immediately prior to the 1st dose, the tumor-bearing mice were randomized to ensure even distribution in tumor sizes across different groups. Tumor volumes (mm^3) were calculated as tumor length (mm)×tumor width (mm)×tumor height (mm) Tumor weights were determined by necropsy.
(§6) In another experiment, athymic nude mice received TOV-21G xenografts in the abdominal flank. After 14 days, subcutaneous hu-sActRIIB-Fc was administered weekly alone or in combination with 5-FU.

Assay [8] relates to Ang-1. Description: Ang-1 immunostaining in gonadal tumor sections of inh-KO mice. In kind it is in vivo, mouse. Conditions: ovarian and testicular tumors of inh-KO mice; FIG. 8B. As to the method: as §1, §4
Assay [9] concerns ovarian tumors in inh-KO mice. Description: Light microscopy (H&E) of ovaries of inh-KO mice. To be noted: female inh-KO mice; FIG. 7A. In kind it is in vivo, mouse. On the procedure:
as §1
Testes and ovaries from inh-KO mice were fixed with Zinc-formalin. Tissue sections were subjected to H&E staining and then examined with a Nikon Eclipse 90i microscope.

Assay [10] in a line: Body weight of TOV-21G xenograft-bearing mice. In kind it is in vivo, mouse. To be noted: TOV-21G xenograft-bearing athymic nude mice; during the course of the experiment; vehicle controls lost 10%. On the procedure: as §6
The subject of assay [11] is VEGF. Description: VEGF release into culture medium (ELISA). In kind it is cell-based, human. Conditions: TOV21G, MRC-5, CCD-Lu and TPH-1 cells treated with activin-A, without or with sActRIIB; FIG. 17A. As to the method: as §2
Assay [12] has as its system IGFPB-2. Nature of the assay: Western blot of IGFBP-2 in ovarian tumors of inh-KO mice. The format is in vivo, mouse. Conditions: FIG. 8D. As to the method: as §1, §5

B1: sActRIIB: extracellular domain of human activin type-2B receptor fused to IgG2 Fc, expressed in CHO cells; sequence in the 26th table (protein)
chain: ETRWCIYYNANWELERTNQGLERCEGEQDKRLHCYASWRNSSGTIELVKKGCWLDDFNCYDRQECVATEENPQVYFCCCEGNFCNERFTHLPEAGGPEVTYEPPPTAPTGGGGSVECPPCPAPPVAGPSVFLFPPKPKDTLMISRTPEVTCVVVDVSHEDPEVQFNWYVDGVEVHNAKTKPREEQFNSTFRVVSVLTVVHQDWLNGKEYKCKVSNKGLPAPIEKTISKTKGQPREPQVYTLPPSREEMTKNQVSLTCLVKGFYPSDIAVEWESNGQPENNYKTTPPMLDSDGSFFLYSKLTVDKSRWQQGNVFSCSVMHEALHNHYTQKSLSLSPGK
modifications: left off: a dimerising Fc or GST
For the molecule B1, in assay [1], the “levels of VEGF transcripts” value is “prevented this induction”. Also, in assay [2], the “circulating VEGF levels” value is “rapidly lowered the elevated VEGF to WT control levels”. Besides, in [3], the “Ang-1 immunostaining in TOV-21G tumor sections” value is listed as “virtually none”. Also, the “VEGF immunoreactivity in tumor sections” value in assay [4] was “completely abolished the VEGF and Ang-1 inductions”. In addition, the ovarian tumor mass entry in assay [5] is given as “regressed rapidly to the sizes seen in the WT control mice”. Also, in [6], the “IGFBP-1 induction (Western blot)” value was “abolished completely”. The tumor growth reduction in assay [7] (52 days after tumor cell injection, versus vehicle-treated tumor-bearing group, p<0.0001, weekly SC hu-sActRIIB-Fc from day 14, alone or with 5-FU) is recorded as 43%. Also, the “rate of tumor growth of TOV-21G xenografts” value in [7] (chemotherapy combination experiment, sActRIIB 10 mg/kg SC 1x/week, 5-FU 50 mg/kg IP 3 cycles, alone or together, FIG. 13) is recorded as “decreased the rate of tumor growth significantly”. Besides, the “growth of TOV-21G ovarian cancer xenografts” value in assay [7] (nude mice, sActRIIB 30 mg/kg SC 1x/week or activin-A antibody 30 mg/kg SC 2x/week from day 12, FIG. 10B) is “significantly inhibited the growth”. In assay [8], the “Ang-1 immunoreactivity in tumor sections” value is “completely abolished the VEGF and Ang-1 inductions”. The “ovarian morphology (light microscopy)” value in assay [9] is “the ovaries were normal in size and contained many recognizable follicles, minimal tumor cell invasion and few hemorrhagic lesions”. For the same molecule, the body weight increase in [10] stood at 26%. Further, the “release of VEGF into the culture medium” value in [11] was “blocked completely”. Also, the “IGFPB-2 induction (Western blot)” value in assay [12] is “abolished completely”.
